According to US20220298218A1 (ANTAG THERAPEUTICS, published 2022):
*1 amine or outer side, *2 acyl side, *3 side chain or, on linkers, in order; H or OH if unused. Where no end group is shown, it is not given here. Side-chain parts run from the residue outwards. The star is where a group is joined. C18 diacid = O=C(O)CCCCCCCCCCCCCCCCC(=O)*; C16 diacid = O=C(O)CCCCCCCCCCCCCCC(=O)*; γGlu = O=C(O)[C@H](CCC(=O)[*:2])N[*:1]; AEEA = NCCOCCOCC(=O)O

Biological target: T1, human GIP receptor (human, UniProt P48546 22-466)
T1 sequence (looked up): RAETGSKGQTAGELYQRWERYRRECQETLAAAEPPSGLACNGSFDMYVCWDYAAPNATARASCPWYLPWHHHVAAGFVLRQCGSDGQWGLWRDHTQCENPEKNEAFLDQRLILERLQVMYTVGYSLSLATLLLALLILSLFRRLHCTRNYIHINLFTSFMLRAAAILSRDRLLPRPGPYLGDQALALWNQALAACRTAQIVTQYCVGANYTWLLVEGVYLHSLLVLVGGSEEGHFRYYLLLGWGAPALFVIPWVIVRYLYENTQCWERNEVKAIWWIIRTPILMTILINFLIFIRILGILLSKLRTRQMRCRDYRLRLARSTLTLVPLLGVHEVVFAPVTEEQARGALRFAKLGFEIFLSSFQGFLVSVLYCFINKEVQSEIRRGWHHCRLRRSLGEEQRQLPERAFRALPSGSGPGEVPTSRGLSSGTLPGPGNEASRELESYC
Assay: cell-based or functional assay

B1: AT442 (peptide)
peptide: SGTFISDYSIAMDRIK([AEEA-AEEA-AEEA-γGlu-C18 diacid])QQDFVNWLLAQRGPSSGAPPPS-OH
modifications: N-terminus assumed
SMILES: CC[C@H](C)[C@H](NC(=O)[C@H](CO)NC(=O)[C@H](Cc1ccc(O)cc1)NC(=O)[C@H](CC(=O)O)NC(=O)[C@H](CO)NC(=O)[C@@H](NC(=O)[C@H](Cc1ccccc1)NC(=O)[C@@H](NC(=O)CNC(=O)[C@@H](N)CO)[C@@H](C)O)[C@@H](C)CC)C(=O)N[C@@H](C)C(=O)N[C@@H](CCSC)C(=O)N[C@@H](CC(=O)O)C(=O)N[C@@H](CCCNC(=N)N)C(=O)N[C@H](C(=O)N[C@@H](CCCCNC(=O)COCCOCCNC(=O)COCCOCCNC(=O)COCCOCCNC(=O)CC[C@H](NC(=O)CCCCCCCCCCCCCCCCC(=O)O)C(=O)O)C(=O)N[C@@H](CCC(N)=O)C(=O)N[C@@H](CCC(N)=O)C(=O)N[C@@H](CC(=O)O)C(=O)N[C@@H](Cc1ccccc1)C(=O)N[C@H](C(=O)N[C@@H](CC(N)=O)C(=O)N[C@@H](Cc1c[nH]c2ccccc12)C(=O)N[C@@H](CC(C)C)C(=O)N[C@@H](CC(C)C)C(=O)N[C@@H](C)C(=O)N[C@@H](CCC(N)=O)C(=O)N[C@@H](CCCNC(=N)N)C(=O)NCC(=O)N1CCC[C@H]1C(=O)N[C@@H](CO)C(=O)N[C@@H](CO)C(=O)NCC(=O)N[C@@H](C)C(=O)N1CCC[C@H]1C(=O)N1CCC[C@H]1C(=O)N1CCC[C@H]1C(=O)N[C@@H](CO)C(=O)O)C(C)C)[C@@H](C)CC
- cAMP antagonism: 26 nM
- cAMP antagonism % inhib: 77%
- cAMP antagonism log: -7.6 log M

B2: AT440 (peptide)
peptide: SGTFISDYSIAMDRIK([AEEA-AEEA-AEEA-γGlu-C16 diacid])QQDFVNWLLAQRGPSSGAPPPS-OH
modifications: N-terminus assumed
SMILES: CC[C@H](C)[C@H](NC(=O)[C@H](CO)NC(=O)[C@H](Cc1ccc(O)cc1)NC(=O)[C@H](CC(=O)O)NC(=O)[C@H](CO)NC(=O)[C@@H](NC(=O)[C@H](Cc1ccccc1)NC(=O)[C@@H](NC(=O)CNC(=O)[C@@H](N)CO)[C@@H](C)O)[C@@H](C)CC)C(=O)N[C@@H](C)C(=O)N[C@@H](CCSC)C(=O)N[C@@H](CC(=O)O)C(=O)N[C@@H](CCCNC(=N)N)C(=O)N[C@H](C(=O)N[C@@H](CCCCNC(=O)COCCOCCNC(=O)COCCOCCNC(=O)COCCOCCNC(=O)CC[C@H](NC(=O)CCCCCCCCCCCCCCC(=O)O)C(=O)O)C(=O)N[C@@H](CCC(N)=O)C(=O)N[C@@H](CCC(N)=O)C(=O)N[C@@H](CC(=O)O)C(=O)N[C@@H](Cc1ccccc1)C(=O)N[C@H](C(=O)N[C@@H](CC(N)=O)C(=O)N[C@@H](Cc1c[nH]c2ccccc12)C(=O)N[C@@H](CC(C)C)C(=O)N[C@@H](CC(C)C)C(=O)N[C@@H](C)C(=O)N[C@@H](CCC(N)=O)C(=O)N[C@@H](CCCNC(=N)N)C(=O)NCC(=O)N1CCC[C@H]1C(=O)N[C@@H](CO)C(=O)N[C@@H](CO)C(=O)NCC(=O)N[C@@H](C)C(=O)N1CCC[C@H]1C(=O)N1CCC[C@H]1C(=O)N1CCC[C@H]1C(=O)N[C@@H](CO)C(=O)O)C(C)C)[C@@H](C)CC
- cAMP antagonism: 103 nM
- cAMP antagonism % inhib: 100%
- cAMP antagonism log: -7 log M
